One series concerns the target T1, Human Insulin Receptor A (Homo sapiens, UniProt P06213).
T1 construct: solubilized human IR (holoreceptor); made in house; host or cells: baby hamster kidney (BHK) cells stably transfected with pZem vector containing the human IR-A insert
Kind of series: Insulin receptor binding assay (on solubilised insulin receptor), SPA. To be noted: SPA competition with [125I]A14Tyr-labelled insulin, solubilized human IR-A. On the procedure:
(2008), Biochemistry, 47, 4743-4751). Competition binding experiments were performed in 96-well plates (polystyrene Optiplate-96, PerkinElmer) on an Eppendorf epMotion 5075 robot using solubilized human IR (holoreceptor) semipurified by wheat germ agglutinin purification from baby hamster kidney (BHK) cells, which were stably transfected with the pZem vector containing the human IR-A or IR-B insert. […] A reagent mix consisting of SPA beads (SPA PVT Antibody-Binding Beads, Anti-Mouse Reagent Cat. No. […] (2008), Biochemistry, 47, 4743-4751). Competition binding experiments were performed in 96-well plates (polystyrene OPTIPLATE-96TM, PerkinElmer) on an Eppendorf EPMOTION® 5075 robot using solubilized human IR (holoreceptor) semipurified by wheat germ agglutinin purification from baby hamster kidney (BHK) cells, which were stably transfected with the pZem vector containing the human IR-A or IR-B insert. […] A reagent mix consisting of SPA beads (SPA PVT Antibody-Binding Beads, Anti-Mouse Reagent Cat. No.

A short description of series [1]: Thioflavin T (ThT) fibrillation assay. In kind it is physicochemical. To be noted: mean of four samples with standard deviation, 37° C., 960 rpm. From the text:
General Procedure for Thioflavin T (ThT) Fibrillation Assay:
This has traditionally been measured by visual inspection of the sample. However, that kind of measurement is very subjective and depending on the observer. Therefore the application of a small molecule indicator probe is much preferred. […] The time course for fibril formation can be described by a sigmoidal curve with the following expression (Nielsen at al. Biochemistry 40, 6036-6046, 2001):
Here, F is the ThT fluorescence at the time t. The constant t0 is the time needed to reach 50% of maximum fluorescence.
Samples were prepared freshly before each assay. […] Thioflavin T was added to the samples from a stock solution in water to a final concentration of 1 μM. Sample aliquots of 200 μl were placed in a 96 well microtiter plate (Packard Optiplate™-96, white polystyrene). Usually four replica of each sample (corresponding to one test condition) were placed in one column of wells. The plate was sealed with Scotch Pad (Qiagen).
The temperature was adjusted to 37° C. […] Fluorescence measurements were done using excitation through a 444 nm filter and measurement of emission through a 485 nm filter.
Each run was initiated by incubating the plate at the assay temperature for 10 min. The plate was measured every 20 minutes for typically 45 hours. Between each measurement, the plate was shaken and heated as described above.
The data points are typically a mean of four samples. Only data obtained in the same experiment (i.e. samples on the same plate) are presented in the same graph ensuring a relative measure of fibrillation between the individual samples of one assay rather then comparison between different assays.
The data set may be fitted to Eq. (1).

The nature of series [2]: Hydrophobicity by isocratic reverse phase HPLC (k'rel). To be noted: hydrophobicity relative to human insulin (k'rel HI = 1); isocratic RP-HPLC, pH 7.3. Type of series: physicochemical. On the procedure: The hydrophobicity, k′rel, is calculated as: k′relderiv=((tderiv−t0)/(trel−t0))*k′relref. Using HI as reference: k′relref=k′relHI=1. The void time of the HPLC system, t0, is determined by injecting 5 μl of 0.1 mM NaNO3. Running conditions:
Column: Lichrosorb RP-C18, 5 μm, 4×250 mm
Buffer A: 0.1 M natrium phosphate pH 7.3, 10 vol % CH3CN
After running an initial gradient, the isocratic level for running the analogue and reference (for example HI) is chosen, and the elution times of the analogue and reference under isocratic conditions are used in the above equation to calculate k′relderiv.

Another series concerns Primary rat adipocytes. Kind of series: Lipogenesis in rat adipocytes. In kind it is cell-based. To be noted: 3H-glucose conversion into extractable lipids; relative potency compared to human insulin. An excerpt:
As a measure of in vitro potency of the insulins of the invention, lipogenesis can be used.
The labelled glucose is converted into extractable lipids in a dose dependent way, resulting in full dose response curves.

T1 sequence (P06213 28-746 isoform P06213-2 limits assumed): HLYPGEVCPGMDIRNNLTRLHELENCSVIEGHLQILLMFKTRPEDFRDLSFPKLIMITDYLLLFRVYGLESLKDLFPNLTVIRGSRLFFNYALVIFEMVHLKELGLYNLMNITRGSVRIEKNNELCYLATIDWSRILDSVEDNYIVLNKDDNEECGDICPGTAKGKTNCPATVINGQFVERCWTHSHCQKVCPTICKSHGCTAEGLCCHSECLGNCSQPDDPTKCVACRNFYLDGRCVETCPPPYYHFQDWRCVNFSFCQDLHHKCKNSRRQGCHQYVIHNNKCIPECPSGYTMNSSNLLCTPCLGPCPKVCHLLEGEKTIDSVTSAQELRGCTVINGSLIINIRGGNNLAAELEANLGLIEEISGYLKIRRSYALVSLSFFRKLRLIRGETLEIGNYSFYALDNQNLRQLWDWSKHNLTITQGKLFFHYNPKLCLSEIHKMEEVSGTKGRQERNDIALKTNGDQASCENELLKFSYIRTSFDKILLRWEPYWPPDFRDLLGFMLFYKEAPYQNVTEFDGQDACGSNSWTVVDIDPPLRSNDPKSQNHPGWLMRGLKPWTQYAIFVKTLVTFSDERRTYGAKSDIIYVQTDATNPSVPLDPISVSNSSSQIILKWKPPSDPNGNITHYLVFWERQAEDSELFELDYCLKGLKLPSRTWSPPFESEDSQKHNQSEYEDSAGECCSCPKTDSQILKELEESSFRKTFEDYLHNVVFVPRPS
T1 sequence (P06213 763-1382 partner limits assumed): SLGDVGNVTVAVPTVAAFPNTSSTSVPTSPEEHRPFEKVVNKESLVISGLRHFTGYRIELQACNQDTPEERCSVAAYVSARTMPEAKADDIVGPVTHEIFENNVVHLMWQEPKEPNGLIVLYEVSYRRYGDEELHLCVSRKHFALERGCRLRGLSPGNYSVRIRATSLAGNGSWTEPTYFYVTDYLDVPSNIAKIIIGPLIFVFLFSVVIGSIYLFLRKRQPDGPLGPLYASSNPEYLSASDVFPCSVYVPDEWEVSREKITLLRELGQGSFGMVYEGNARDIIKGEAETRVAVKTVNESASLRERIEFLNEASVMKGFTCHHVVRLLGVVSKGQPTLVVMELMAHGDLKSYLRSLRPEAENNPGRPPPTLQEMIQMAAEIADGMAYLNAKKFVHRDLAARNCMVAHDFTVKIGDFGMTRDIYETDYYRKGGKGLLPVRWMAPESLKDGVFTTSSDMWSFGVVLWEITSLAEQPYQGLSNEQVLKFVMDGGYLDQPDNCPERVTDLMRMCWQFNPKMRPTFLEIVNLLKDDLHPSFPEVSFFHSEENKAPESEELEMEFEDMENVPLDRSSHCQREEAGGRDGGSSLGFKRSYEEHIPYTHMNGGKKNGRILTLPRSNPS

On to “A10C, A21G, B2C, B3E, B28E, desB30 human insulin [Example 17]”, for which, on Human Insulin Receptor A, the “Relative Affinity to Human Insulin Receptor A (% HI)” value (shortened to “Relative Affinity … (% HI)”) is reported as 80.0 % HI.

As for “A10C, A21G, B3C, desB27, B28E, desB30 human insulin [Example 23]”, on Human Insulin Receptor A, the “Relative Affinity … (% HI)” value was 20.0 % HI.

Turning to “A10C, A22K, B3C, desB27, desB30 human insulin [Example 28]”, in series [1] (0 h), the “ThT fluorescence, 0 h” value was 35.8 ± 0.9. Besides, in series [1] (2 h), the “ThT fluorescence, 2 h” value was determined as 29.4 ± 1. The “ThT fluorescence, 20 h” value in series [1] (20 h) was 27.6 ± 0.8. In series [1] (45 h), the “ThT fluorescence, 45 h” value came out at 25 ± 0.7. The “k′-rel (human insulin)” value in series [2] is 0.0810. In addition, the “Lipogenesis (potency rel to HI)” value in the series with Primary rat adipocytes worked out at 25.3%.

On to “A21C, B10E, B26C, desB30 human insulin [Example 78]”, for which, at Human Insulin Receptor A, the “Relative Affinity … (% HI)” value was determined as 10.0 % HI.

Source of the values: patent US8815798B2, “Insulin analogues containing additional disulfide bonds” (priority 2010, dated 2014).
